The text below walks through data of publication PMC8293163 (2021).

Where a chain is given by its changes, count along the chain named.

B1: 10E8v4-P100fA Fab (Fab, V domains shown)
VH: EVRLVESGGGLVKPGGSLRLSCSASGFDFDNAWMTWVRQPPGKGLEWVGRITGPGEGWSVDYAESVKGRFTISRDNTKNTLYLEMNNVRTEDTGYYFCARTGKYYDFWSGYAPGEEYFQDWGQGTLVIVSS
VL: ASELTQDPAVSVALKQTVTITCRGDSLRSHYASWYQKKPGQAPVLLFYGKNNRPSGIPDRFSGSASGNRASLTITGAQAEDEADYYCSSRDKSGSRLSVFGGGTKLTVL
B2: 10E8v4-H31FLC Fab (Fab, V domains shown)
VH: B1 VH with A112P
VL: SELTQDPAVSVALKQTVTITCRGDSLRSFYASWYQKKPGQAPVLLFYGKNNRPSGIPDRFSGSASGNRASLTITGAQAEDEADYYCSSRDKSGSRLSVFGGGTKLTVL
B3: 10E8v4-P100gA Fab (Fab, V domains shown)
VH: B1 VH with A112P, P113A
VL: B1 VL
B4: 10E8v4-P100fA-P100gA Fab (Fab, V domains shown)
VH: B1 VH with P113A
VL: B1 VL
B5: 10E8v4 Fab (Fab, V domains shown)
VH: B1 VH with A112P
VL: B2 VL with F29H

The first assay has as its target T117-F MPER scaffold. Description: BLI. On the technique in general: BLI is a label-free optical method that tracks binding on a fibre tip over time.
A word on the koff: it is the rate constant with which the complex falls apart. The molecule B1 showed a koff of 0.021 s⁻¹.

B2: the koff was found to be 0.0364 s⁻¹.

Regarding B3, the koff is 0.0314 s⁻¹.

Molecule B4 registered a koff of 0.0583 s⁻¹.

In turn, B5 registered a koff of 0.00137 s⁻¹. This koff lies about 43-fold lower than the previous one.

The next assay has as its target T117-F MPER scaffold. In words: BLI. The source holds these as a separate data set.
One may read the Kd as the equilibrium constant for the complex coming apart. Take B1: the Kd amounted to 103 nM. That is a sub-micromolar value.

For the molecule B2, the Kd stood at 1460 nM.

Turning to B3, the dissociation constant (Kd) amounted to 171 nM.

B4 displayed a Kd of 2750 nM.

The molecule B5 displayed a Kd of 9.4 nM.
